Source: the supplement of paper PMC11780869

system: Bacillus subtilis; assay: cleaved RNA product abundance (RNA/gDNA barcode ratio) relative to median wild-type variant (ratio to wild type); higher = more accumulation of the downstream cleavage product; details: experiment (reporter, strain, medium): exp 8a: truncated aprE reporter, strain BJT201 with 2% xylose (RNase J1 expressed); cleavage site: glnRA (positions -5 to +31 mutated)
How it was run: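 In LB at 37°C, B. subtilis cultures went from OD600 0.0003 to 0.3. Their chromosomes held barcoded reporter mRNAs, truncated aprE or tetM, with RNase Y cleavage-site windows mutagenized via oligos at a 9% error rate. Cleaved RNA, chosen by gel, was reverse transcribed and barcode-sequenced alongside genomic DNA barcodes with UMI collapsing, giving a per-construct RNA:gDNA ratio scaled to the median construct with the unmutated site. This scaled ratio is termed cleaved product abundance.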

| Sequence | cleaved RNA product abundance |
| --- | --- |
| CGACATGTCCCGCTTCTTTCATTAATCCGTTAGCAACTGATTTGCTATATACATTTTCCTTTTAAGAGGAGGAAT | 0.328 |
| CGACATGTCCCGCTTCTTTCATTAATCCGTTAGCAACTGATTTGCTATATAGATTTACCTTTTAAGAGGAGGAAT | 0.979 |
| CGACATGTCCCGCTTCTTTCATTAATCCGTTAGCAACTGATTTGCTTTATACATTTACCTTTTAAGAGGAGGAAT | 0.282 |
| CGACATGTCCCGCTTCTTTCATTAATCCGTTAGCAACTGATTTTCTATATACATTTACCTTTTAAGAGGAGGAAT | 0.689 |
| CGACATGTCCCGCTTCTTTCATTAATCCGTTAGCAACTGCTTTGCTATATACATTAACCTTTTAAGAGGAGGAAT | 0.575 |
| CGACATGTCCCGCTTCTTTCATTAATCCGTTAGCAACTGCTTTGCTATATACATTTACCTTTTAAGAGGAGGAAT | 0.307 |
| CGACATGTCCCGCTTCTTTCATTAATCCGTTAGCAACTGCTTTGCTGTATACATTTACCTTTTAAGAGGAGGAAT | 0.106 |
| CGACATGTCCCGCTTCTTTCATTAATCCGTTAGCAACTGGTTTGATATATACATTTACCTTTTAAGAGGAGGAAT | 0.485 |
| CGACATGTCCCGCTTCTTTCATTAATCCGTTAGCAACTGGTTTGCTATATACATTTACCTTTTAAGAGGAGGAAT | 0.811 |
| CGACATGTCCCGCTTCTTTCATTAATCCGTTAGCAACTGGTTTGCTATATACATTTACTTTTTAAGAGGAGGAAT | 0.918 |
| CGACATGTCCCGCTTCTTTCATTAATCCGTTAGCAACTGGTTTGCTGTATACATTTACCTTTTAAGAGGAGGAAT | 0.0825 |
| CGACATGTCCCGCTTCTTTCATTAATCCGTTAGCAACTGTAATGCTATATACATTTACCTTTTAAGAGGAGGAAT | 1.06 |
| CGACATGTCCCGCTTCTTTCATTAATCCGTTAGCAACTGTACTGCTATATACATTTACCTTTTAAGAGGAGGAAT | 0.328 |
| CGACATGTCCCGCTTCTTTCATTAATCCGTTAGCAACTGTATTACTATATACATTTACCTTTTAAGAGGAGGAAT | 0.835 |
| CGACATGTCCCGCTTCTTTCATTAATCCGTTAGCAACTGTATTCCTATATACATTTACCTTTTAAGAGGAGGAAT | 0.45 |
| CGACATGTCCCGCTTCTTTCATTAATCCGTTAGCAACTGTATTGATATATACATTTACCTTTTAAGAGGAGGAAT | 0.658 |
| CGACATGTCCCGCTTCTTTCATTAATCCGTTAGCAACTGTATTGCAATATACATTTACCTTTTAAGAGGAGGAAT | 0.678 |
| CGACATGTCCCGCTTCTTTCATTAATCCGTTAGCAACTGTATTGCTAAATACATTTACCTTTTAAGAGGAGGAAT | 0.438 |
| CGACATGTCCCGCTTCTTTCATTAATCCGTTAGCAACTGTATTGCTATATAAATTTACCTTTTAAGAGGAGGAAT | 0.849 |
| CGACATGTCCCGCTTCTTTCATTAATCCGTTAGCAACTGTATTGCTATATACATATACCTTTTAAGAGGAGGAAT | 0.755 |
| CGACATGTCCCGCTTCTTTCATTAATCCGTTAGCAACTGTATTGCTATATACATGTACCTTTTAAGAGGAGGAAT | 0.783 |
| CGACATGTCCCGCTTCTTTCATTAATCCGTTAGCAACTGTATTGCTATATACATTTAACTTTTAAGAGGAGGAAT | 1.13 |
| CGACATGTCCCGCTTCTTTCATTAATCCGTTAGCAACTGTATTGCTATATACATTTACATTTTAAGAGGAGGAAT | 1.47 |
| CGACATGTCCCGCTTCTTTCATTAATCCGTTAGCAACTGTATTGCTATATACATTTACCCTTTAAGAGGAGGAAT | 1.1 |
| CGACATGTCCCGCTTCTTTCATTAATCCGTTAGCAACTGTATTGCTATATACATTTACCTTTTAAGAGGAGGAAT | 0.943 |
| CGACATGTCCCGCTTCTTTCATTAATCCGTTAGCAACTGTATTGCTATATACATTTACGTTTTAAGAGGAGGAAT | 1.16 |
| CGACATGTCCCGCTTCTTTCATTAATCCGTTAGCAACTGTATTGCTATATACATTTATCTTTTAAGAGGAGGAAT | 1.07 |
